Test results as given in patent US20210198366A1.

What follows are binders tested against T1, cynomolgus monkey B7-H7 (soluble analyte in SPR) (cynomolgus monkey) (assay: SPR (Biacore)).
T1 sequence: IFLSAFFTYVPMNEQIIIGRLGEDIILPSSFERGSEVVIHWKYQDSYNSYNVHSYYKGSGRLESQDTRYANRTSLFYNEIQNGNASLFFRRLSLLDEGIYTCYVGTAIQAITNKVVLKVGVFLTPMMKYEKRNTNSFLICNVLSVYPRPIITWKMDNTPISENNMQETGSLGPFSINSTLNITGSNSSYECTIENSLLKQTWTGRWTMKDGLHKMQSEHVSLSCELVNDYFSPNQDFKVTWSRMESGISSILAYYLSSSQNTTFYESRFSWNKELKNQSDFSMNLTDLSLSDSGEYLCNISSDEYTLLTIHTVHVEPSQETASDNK

| Binder | Kd | koff |
| --- | --- | --- |
| humanized anti-B7-H7 antibody Hz2D7 (antibody, human IgG1, kappa, V domains shown) VH: QVQLVQSGAEVKKPGASVKVSCKTSGYTFTEYTMHWVRQAPGQGLEWMGGINPNNYGAPYNQKFKGRVTMTVDTSISTAYMELSRLRSDDTAVYYCASGGYYFDYWGQGTLVTVSS VL: DIQMTQSPSSLSASVGDRVTITCKASQDVGTAVAWYQQKPGKAPKLLIYWAFTRHTGVPSRFSGSGSGTDYTLTISSLQPEDFATYYCQQHYDTPFTFGQGTKVEIKR | 0.4 nM | 7.6e-05 s⁻¹ |
| anti-B7-H7 antibody 2D7 (antibody, V domains shown) VH: EVQLQQSGPELVKPGASVKISCKTSGYTFTEYTMHWVKQSHGKSLEWIGGINPNNYGAPYNQKFKGKATLTVDKSSNTAYMELRSLTSEDSAIYYCASGGYYFDYWGQGTTLTVSS VL: DIVMTQSHKFMSTSFGDRVSITCKASQDVGTAVAWYQQKLGQSPKLLISWAFTRHTGVPDRFTGSGSGTDYTLTISSLQAEDLALYYCQQHYDTPFTFGSGTKLEIK | 0.65 nM | 0.00011 s⁻¹ |
| chimeric 2D7 antibody comprising the murine heavy chain and light chain variable regions of 2D7 and a human Fc region (antibody, V domains shown) VH: EVQLQQSGPELVKPGASVKISCKTSGYTFTEYTMHWVKQSHGKSLEWIGGINPNNYGAPYNQKFKGKATLTVDKSSNTAYMELRSLTSEDSAIYYCASGGYYFDYWGQGTTLTVSS VL: DIVMTQSHKFMSTSFGDRVSITCKASQDVGTAVAWYQQKLGQSPKLLISWAFTRHTGVPDRFTGSGSGTDYTLTISSLQAEDLALYYCQQHYDTPFTFGSGTKLEIK | 0.14 nM | 3.5e-05 s⁻¹ |

Each binder was assayed against T1, cynomolgus monkey B7-H7 (soluble analyte in SPR) (cynomolgus monkey) (assay: SPR (Biacore), antibody captured by anti-Fc on CM5 chip, B7-H7 injected, 37 C).

| Binder | Kd |
| --- | --- |
| anti-B7-H7 antibody 2F10 (antibody, V domains shown) VH: EIQLQQTGPELVKPGASLRISCKASGYSFTDYIIVWVKQNQGKNLDWIEKINPYYGTTTYNLRFEDKATLTVNKSSTTAYMQLNSLTSEDSAVYYCARWDYVSTLFAMDYWGQGTSITVSS VL: DIVMTQSHKVMSTSVGDRVSIICKASQDVGTAVAWYQQKPGQSPKLLIYWASTRHTGVPDRFTGSGSGTDFILTITNVQSENLANYFCQQYKRYYTFGGGTKLEIK | 8.6 nM |
| anti-B7-H7 antibody 28F5 (antibody, V domains shown) VH: QVQLKESGPGLVAPSQSLSITCTVSGFSLTGYGVNWVRQPPGKGLEWLGVIWGDGSTDYNSVLKSRLSISKDNSKSQVFLKMNSLQTDDTARYYCAREATEYLYWYFDVWGAGTTVTVSS VL: DIVLTQSPASLAVSLGQRATISCRASESVEYYGSSLMQWYQQKPGQPPKLLIFAASNVESGVPPRFSGSGSGTDFNLNIHPVDEDDIAMYFCQQGRRVPWTFGGGTKLEIK | 4.5 nM |
| anti-B7-H7 antibody 5C9 (antibody, V domains shown) VH: QVQLQQSGAELAKPGASVKMSCKASGYTFTSFWIHWIKQRPGQGLEWIGYIIPNTDYTEYNQKFKDKATFTADKSSSTAYMQLSSLTSEDSAVFYCARGLRGAYYFDYWGQGTTLTVSS VL: DIVLTQSPASLAVSLGLRATISCRSSQSVSTSTNGYMHWYQQKPGQPPKLLIMYASNLESGVPARFSGSGSGTDFTLNIHPVDEEDTATYYCQHSWVLPYTFGGGTKLEIK | 4.8 nM |
| anti-B7-H7 antibody 1D3 (antibody, V domains shown) VH: EVQLQQSGPELEKPGASVKISCKASGYSFTGYNMNWVKESNGRSLEWIGNIDPYSGGSTYNQKFKGKATMTVDKSSSTAYMQLKSLTSEDSAVYYCARSVYDAPWLAHWGQGTLVTVSA VL: DIQMTQSPASLSASVGETVTITCRASENIYIYLAWYQQKQGKSPQLLVYNAKTLAEGVPSRFSGSGSGTQFSLKINRLQPEDFGNYYCQHHYGTPPTFGGGTKLEIK | 3.2 nM |
| anti-B7-H7 antibody 5B10 (antibody, V domains shown) VH: EVQLQQSGPELEKPGASVKISCKASGYSFTGYNMNWVKQSNGKSLEWIGNIDPYSGGSTYNQKFKGKATLTVDKSSSTASLQLKSLTSEDSSVYYCARSFYDAPYLTYWGQGTLVTVSA VL: DIQMTQSPTSLSASVGETVTITCRASENIFIYLAWYQQKQGKSPQLLVFNAKTLAEGVPSRFSGSGSGTQFSLKINSLRPEDFGTYYCQHHYGTPPTFGGGTKLEV | 4.6 nM |
| anti-B7-H7 antibody 2D7 (antibody, V domains shown) VH: EVQLQQSGPELVKPGASVKISCKTSGYTFTEYTMHWVKQSHGKSLEWIGGINPNNYGAPYNQKFKGKATLTVDKSSNTAYMELRSLTSEDSAIYYCASGGYYFDYWGQGTTLTVSS VL: DIVMTQSHKFMSTSFGDRVSITCKASQDVGTAVAWYQQKLGQSPKLLISWAFTRHTGVPDRFTGSGSGTDYTLTISSLQAEDLALYYCQQHYDTPFTFGSGTKLEIK | 0.6 nM |
| anti-B7-H7 antibody 3H6 (antibody, V domains shown) VH: EVQLQQSGPELVKPGASVKISCKTSGYTFTEYTMHWVKQSHGKSLEWIGGINPNNGGAPYNQKFKGKATLTVDKSSSTAYMELRSLTSEDSAVYYCARGGYYFDYWGQGTTLTVSS VL: DIVMTQSHKFMSTSVGDRVSITCKASQDVSTAVAWYQQKSGQSPKLLIYWASTRHTGVPDRFTGSGSGTDYTLTISSVQAEDLALYYCQQHYDTPFTFGGGTKLEIK | 6.9 nM |
| anti-B7-H7 antibody 16D5 (antibody, V domains shown) VH: QVQLQQSAAELARPGASVKMSCKASGYTFTTYTMHWVKQRPGQGLEWIGYINPSRGYSDYSQKFQGKSTLTTDKSSNTAYIQLTSLTSEDSAVYFCARGGYDFDYWGQGTTLTVSS VL: DIVMTQSHKFMSTSVGDRVSITCKASQDVGTAVAWYQQKPGQSPKLLLYWASTRHTGVPDRFTGSGSGTDYTLTISSVQAEDLALYHCQQHFITPYTFGGGTKLEIK | 6.9 nM |
| anti-B7-H7 antibody 5F7 (antibody, V domains shown) VH: QEQLQQPGTELVKPGASVKISCKASGYTFSSYSMHWVKLTPGQGLEWMGTIYPGNENTSYNQKFKGKATLTADKSSSTAYMQLSSLTSEDSAVYYCARGGYYFDYWGQGTTLTVSS VL: DIVMTQSHKFLSTSVGDRVSITCKASQDVSTAVAWYQQKPGQSPKLLIYWASTRHTGVSDRFTGSGSGTDFTLTISSVQAEDLALYYCQQHFDIPYWFGGGTKLEIK | 1.2 nM |
